Assay results: patent US20230416704A1, “LACTONASE AND STABILIZED MUTANTS THEREOF FOR TREATING FUNGAL INFECTIONS IN PLANTS” (MIGAL GALILEE RESEARCH INSTITUTE LTD., priority 2020, published 2023)

Legend:
P. expansum = assay: Pathogenicity assay in apples (EaAiiA)
Experimental: The lesion size of the treated apples was measured 3 days after inoculation with P. expansum. Mean values of 18 replicates are presented (**** p<0.0001, according to one-way ANOVA followed by Tukey-Kramer).
Pathogenicity assay in apples. P. expansum spores (50 spores/ml) were incubated in 1 ml LB medium/sterile water at 25° C. 300 rpm either alone or 2 μM EaAiiA, and apples were then inoculated and incubated in the same manner as described above. Enzyme incubated with 50 mM EDTA at 90° C. for 1 hour was used as a negative control (inactivated enzyme).

[1] = Enzyme kinetics analysis of EaAiiA with patulin; settings: 0.05 μM EaAiiA, patulin 0-0.4 mM, pH 7.5, 100 μM ZnCl2
Experimental: (6A) Michaelis-Menten kinetics analysis with 0.05 μM purified bacterial lactonase (EaAiiA), in activity buffer containing 100 mM Tris pH 7.5, 100 mM NaCl, 100 μM ZnCl2, at Error bars indicate standard deviation of three replicates for each treatment.
Enzyme kinetics analysis with patulin. EaAiiA activity (0.05 μM) with patulin was analyzed as follows: EaAiiA activity was measured by detecting the reduction in the UV absorbance (detected at 278 nm) of patulin at different concentrations (0-0.4 mM) in the presence of enzyme at a final concentration of 0.05 μM, in an activity buffer containing 100 mM Tris pH 7.5, 100 mM NaCl, 100 μM ZnCl2, in UV 96-well plates. An activity buffer was used as a negative control. The activity was monitored in a microtiter plate reader (BioTeK, Winooski, VT, USA). Reactions were performed as the concentration of organic solvent was lower than 1%. Vo initial rates were corrected for the patulin spontaneous hydrolysis background rate performed with an activity buffer. Kinetic parameters were obtained by GraphPad software as fitting initial rates directly to the Michaelis-Menten equation, standard deviations obtained from three independent measurements.

B1: EaAiiA: AHL lactonase encoded by Erwinia amylovora, metallo-β-lactamase fold (protein, listed as Erwinia amylovora)
chain: MNYHIIPVTAFAQNCSVIWCPETGEAALVDPGGDAQKIKHEIAALGLTVKQILLTHGHLDHVGAAAELAEHYDVPIVGPHKADKFWLDGLPQQSQMFGFDECAPLTPDRWLQEGEVVLVGNTVLEVLLCPGHTPGHIVFFERKARLLVSGDVIFSGGVGRSDFPQGSHQDLIASILNKLLPLGDDVTFIAGHGPMSTLGRERISNPFLQ
- effect of inactivated enzyme on inhibition of fungal colonization (P. expansum; EaAiiA inactivated by 90° C. and EDTA prior to incubation with spores): fully reduced the inhibition
- decline of colonized area (P. expansum; spores incubated with 2 μM EaAiiA prior to apple inoculation, third day after inoculation): 85%
- kcat [1]: 5.426 ± 1.5 s⁻¹
- Km ([1]; read-out: estimated KM): 764 ± 284 µM
